In the supplement of paper PMC10126150:
± gives the standard deviation of the averaged measurements.

Test system: ATP
Assay: switch fluorescence ratio, 500 uM ATP over buffer (Cy3 cluster intensity, sum of 5 cycles each) (fold (ratio)); higher = stronger signal-on switching upon ATP binding; sequences stand for … in TCGTCGGCAGCGTCAGATGTGTATAAGAGACAGTTTTTTTTTTTTTTTTTTTTTTTTT…TC
Conditions: aptamer strand: ATP DNA aptamer (quencher-CACCTGGGGGAGTATTGCGGAGGAAGG + anchor), 100 nM annealed; ATP concentration: 500 uM
In short: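 Clusters with intensities outside 100-1000 RFU were excluded. The remaining Cy3-labelled switching-strand clusters on a modified Illumina MiSeq flow-cell had been annealed to 100 nM quencher-labelled ATP aptamer and imaged in selection buffer, then after 15 min with 500 uM ATP at 22 °C, for five cycles separated by NaOH stripping and re-annealing. The fluorescence ratio, averaged per switch-domain sequence, is each cluster's summed target-cycle Cy3 intensity over its summed buffer-cycle Cy3 intensity.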
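Also: ATP exposure 15 min at 22 °C before imaging.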

Row | Sequence | switch fluorescence ratio
1 | GTGAGTGCCT | 1.006 ± 0.01
2 | TCGACATGGT | 0.995 ± 0.041
3 | AATGGCAATG | 1.05 ± 0.026
4 | GCGTCTATTA | 0.995 ± 0.012
5 | TATCAGAGGA | 1.04 ± 0.013
6 | TTAGGAAGAT | 1.36 ± 0.59
7 | CAGTTACGAC | 1.13 ± 0.055
8 | AAAGGGGCTG | 0.98 ± 0.061
9 | GGATGTCGCG | 1.0124 ± 0.001
10 | AGGGTGAGCG | 0.997 ± 0.022
11 | GTGGAGAGGG | 0.993 ± 0.038
12 | GTTAGTGGCT | 0.9906 ± 0.0034
13 | ATCAGATGAA | 0.999 ± 0.023
14 | TTGGGACGTC | 1.02 ± 0.048
15 | AGGGAGAAGA | 1.005 ± 0.0077
16 | GCAGGGGGGA | 1.04 ± 0.05
17 | AGGGGTAACT | 0.996 ± 0.031
18 | ATGAGTTATT | 1.01 ± 0.013
19 | GGTCTAAGTG | 0.9816 ± 0.0034
20 | CCGTTGTCCA | 1.02 ± 0.032
21 | TATGTGGGCC | 0.97 ± 0.041
22 | GGGGTTGGCA | 1.03 ± 0.014
23 | TCTAATTGTT | 0.9991 ± 0.0053
24 | TTTCGTACTC | 1.09 ± 0.13
25 | ATAGAAGGGT | 1.01 ± 0.026

Row | Sequence | switch fluorescence ratio
26 | TTAACCCGCC | 1.16 ± 0.14
27 | ACCCAGTGAA | 1.24 ± 0.016
28 | GAGGTTAGGA | 1 ± 0.012
29 | TTGCAGACTT | 1.05 ± 0.072
30 | TAATGCGATT | 1.04 ± 0.017
31 | ACAAGGTGAT | 1.15 ± 0.024
32 | CGAACGTCAG | 1.04 ± 0.012
33 | CGTTATATAA | 1.04 ± 0.014
34 | GCGAGAAATC | 1.08 ± 0.019
35 | GATTTACATA | 1.01 ± 0.019
36 | TTGGCGCGGC | 1.1 ± 0.063
37 | TCACGGGGGT | 1.17 ± 0.23
38 | CGTGGAGCGA | 1.04 ± 0.02
39 | GATATAAGCT | 1.05 ± 0.066
40 | AGGGAGAGCC | 0.9957 ± 0.0041
41 | GGTTAACCTG | 0.9959 ± 0.0062
42 | AATGCAGATT | 1.031 ± 0.008
43 | TGGCAGACTC | 1.28 ± 0.013
44 | TCGCATTGGT | 1.24 ± 0.037
45 | GGGGATATAT | 1 ± 0.035
46 | TTAGACATAT | 1.02 ± 0.021
47 | GGTTTAAGGC | 0.993 ± 0.047
48 | TTCCAGGCGT | 1.23 ± 0.055
49 | CATGTTTGCT | 0.961 ± 0.02
50 | TTTGCGACGT | 1.02 ± 0.025

Row | Sequence | switch fluorescence ratio
51 | TGGGAATGAC | 2.01 ± 1.4
52 | CGGGGGGTAA | 1.01 ± 0.029
53 | GTTTAAACGT | 1.02 ± 0.021
54 | GGTGTTCTGC | 0.995 ± 0.081
55 | TTGCGGCGGT | 0.983 ± 0.033
56 | GGGAATCTTC | 1.01 ± 0.034
57 | TTGGCGGTGG | 1.08 ± 0.26
58 | GCGGTAGCAT | 1.02 ± 0.012
59 | TGAGTCCCGG | 1 ± 0.016
60 | AGTGGGAATG | 0.9595 ± 0.0078
61 | CGGGTGAGGT | 1 ± 0.027
62 | AAAGAGCGTA | 1 ± 0.029
63 | TATATATCTC | 0.9917 ± 0.0089
64 | TGAGGTCATT | 0.989 ± 0.028
65 | GGCTTGCCTC | 1.023 ± 0.0069
66 | TAGATGCTTT | 0.96461 ± 0.00038
67 | TCGGGGTATC | 1.03 ± 0.0046
68 | TTTCCCGAGG | 1.51 ± 0.55
69 | TGTCTTTATT | 0.988 ± 0.016
70 | CAAATCCTAT | 1.01 ± 0.013
71 | AGGCGGGGTA | 0.9847 ± 0.0089
72 | ATTTTTTTTG | 0.987 ± 0.023
73 | TTGAAAATGG | 0.992 ± 0.026
74 | TAAAATTTTT | 1.002 ± 0.01
75 | TGGGATTGGG | 0.974 ± 0.013

Row | Sequence | switch fluorescence ratio
76 | GATGAATCGG | 0.973 ± 0.012
77 | TTCGTGCTTC | 0.963 ± 0.024
78 | ATTTCAGGTC | 1.02 ± 0.013
79 | CGAAAAGGCT | 1.01 ± 0.016
80 | CGATTTGTAA | 0.99 ± 0.031
81 | CGGGTATGCT | 0.959 ± 0.025
82 | AAACTGATGA | 1.06 ± 0.024
83 | TTGTTTTACT | 1.027 ± 0.0056
84 | CGGGTCTGTG | 0.999 ± 0.018
85 | TTTTTAAGAC | 1.08 ± 0.086
86 | CTCGGGACGG | 1.005 ± 0.01
87 | TCCGGGCCCA | 1.038 ± 0.0023
88 | TGAGAGGGGT | 1.05 ± 0.042
89 | TTTGTCGATA | 1.05 ± 0.025
90 | TGGAGGGAAG | 1.03 ± 0.059
91 | AAAGTCCTA | 0.982 ± 0.015
92 | CGCGGGTATT | 1.02 ± 0.017
93 | TTCGATATTT | 0.982 ± 0.017
94 | TTAGGGCTCA | 0.996 ± 0.027
95 | CAGGGGGTTA | 1.02 ± 0.026
96 | TGCATTGCTA | 1.04 ± 0.015
97 | CGGTTGTAAT | 1.03 ± 0.041
98 | CGATGAGTTT | 1.01 ± 0.033
99 | GCGGAGCATG | 1.1036 ± 0.00099
100 | TTTCATTTAT | 0.986 ± 0.021

Row | Sequence | switch fluorescence ratio
101 | TCCCCTGTCG | 1.07 ± 0.085
102 | TGGCATAGGT | 1.02 ± 0.03
103 | GCCTTAGCGG | 1.03 ± 0.048
104 | TTACTTTGTT | 1.02 ± 0.023
105 | TGGGGGCTT | 1.03 ± 0.014
106 | TAAATAATAT | 1.01 ± 0.019
107 | TTGTAGGAGC | 0.965 ± 0.14
108 | GGCCAACGTA | 0.997 ± 0.021
109 | TGTGTGTTTA | 1.01 ± 0.012
110 | TTTGTTTGCG | 1.03 ± 0.032
111 | AGAGCCCTTA | 1.01 ± 0.014
112 | GTGTTTGTCA | 0.981 ± 0.017
113 | TCCTTGTAGT | 1.11 ± 0.17
114 | GGGGTTACTG | 0.993 ± 0.034
115 | TTCGTATACC | 0.988 ± 0.051
116 | ACTTTACAAA | 1.28 ± 0.036
117 | CGTACTAAAA | 1.06 ± 0.036
118 | TAATACGTTA | 1.197 ± 0.0026
119 | ACAGTTCTAC | 1.03 ± 0.031
120 | GATTGCATGA | 0.996 ± 0.024
121 | TTGGGGTGCG | 0.995 ± 0.011
122 | ATTATGGTTT | 1 ± 0.022
123 | ATCAGGGACA | 1.18 ± 0.017
124 | CCGATGTGGT | 1.57 ± 0.039
125 | TGCAAGGGGC | 1.04 ± 0.04

Row | Sequence | switch fluorescence ratio
126 | GGCATGGTTT | 1.01 ± 0.014
127 | ATTATACGGG | 1.052 ± 0.007
128 | ACCGGGGGTA | 0.991 ± 0.024
129 | ATAACAAGAC | 1.32 ± 0.067
130 | TCTAAAGATT | 1.011 ± 0.0027
131 | ATAGATGGCC | 0.95 ± 0.056
132 | CCGCTGGGGG | 1.177 ± 0.0036
133 | AGGCTTTTAT | 1.005 ± 0.0078
134 | TTTCCAAAAT | 0.991 ± 0.026
135 | TTTAAGGGGT | 0.991 ± 0.051
136 | AGGCGTGAGG | 1.01 ± 0.049
137 | GTGATGGGTT | 0.953 ± 0.014
138 | AAAGGGTATC | 0.9956 ± 0.0092
139 | AGTCCGGACC | 0.967 ± 0.026
140 | TTTCTTCTTT | 1.02 ± 0.044
141 | CGCTCAAGGG | 1.031 ± 0.0042
142 | GTAGGGAGTT | 0.977 ± 0.012
143 | TTGACCGGGA | 1.14 ± 0.27
144 | TGACTGGGGT | 1.02 ± 0.068
145 | GGGGAATTCA | 1.04 ± 0.046
146 | TCCTTGCTGT | 1.12 ± 0.095
147 | CTATTCCACC | 1.02 ± 0.023
148 | GATATGGATG | 0.96 ± 0.032
149 | GTGTAAGTA | 0.9702 ± 0.0042
150 | CTAAGTATGG | 0.9938 ± 0.0096

Row | Sequence | switch fluorescence ratio
151 | GGGGTCGGTC | 1 ± 0.023
152 | TGGGGGGGTT | 1 ± 0.034
153 | TTTGGAGAAA | 0.989 ± 0.022
154 | TCAAACCGCA | 1.91 ± 0.16
155 | TTTCGGTTTG | 1.02 ± 0.047
156 | GGAATAGTTT | 1.03 ± 0.047
157 | AGGTTTCTCT | 0.966 ± 0.031
158 | CAGCTAGTCC | 1.176 ± 0.0035
159 | CAGCAGGCGG | 1.01 ± 0.024
160 | AATGGTTGGG | 0.9989 ± 0.0078
161 | AGTGTTAGGA | 1.02 ± 0.011
162 | TGTAGGGGAA | 0.996 ± 0.011
163 | TGACCCGGGT | 1.018 ± 0.0072
164 | TTAGGGTTTG | 0.995 ± 0.029
165 | GGGGCTCTAA | 1.01 ± 0.038
166 | TAAGATTTTT | 1.01 ± 0.032
167 | GGGCAGGCGA | 1.011 ± 0.0077
168 | TGAAACAGGT | 1.001 ± 0.0032
169 | GATAGACGGA | 0.99171 ± 0.00018
170 | AGTTTTTTTT | 0.997 ± 0.028
171 | TGTGGAAGGT | 0.9999 ± 0.0078
172 | GGGGGGCAAG | 0.9858 ± 0.009
173 | CCCCGGATGG | 1.26 ± 0.22
174 | AGGAGCGGTA | 1.1 ± 0.12
175 | TTTTGGCTTA | 0.9945 ± 0.007

Row | Sequence | switch fluorescence ratio
176 | ACTTACTTTA | 1.18 ± 0.04
177 | TACTGAATGT | 1.02 ± 0.013
178 | ATCATAAGGT | 1.02 ± 0.02
179 | GCTAGTGAAC | 1.029 ± 0.0091
180 | ATCGGCGGGA | 0.986 ± 0.01
181 | ATTAGTGGGG | 0.978 ± 0.013
182 | ACTAGCTGTA | 0.982 ± 0.034
183 | AATTTCGGGA | 1.01 ± 0.044
184 | AAGGGTAAGC | 0.981 ± 0.029
185 | CCAACAGGTT | 1.69 ± 0.079
186 | TGTGTTTGAG | 0.972 ± 0.051
187 | ACCGTTGGTT | 1.02 ± 0.056
188 | TCGATAATTT | 0.986 ± 0.022
189 | TTAAACGGTA | 1.03 ± 0.029
190 | CTTATTAGGC | 1.05 ± 0.042
191 | TGTGGTGCGA | 0.995 ± 0.029
192 | CCATCTAGTT | 0.9681 ± 0.0047
193 | GGGAGTGTTT | 1 ± 0.026
194 | ACTAGATTCT | 0.979 ± 0.013
195 | CAGGGGAAAG | 1.01 ± 0.033
196 | TCATCCCTAT | 1.1 ± 0.15
197 | TACTGGTCCG | 1.08 ± 0.074
198 | GACAACTTTT | 0.991 ± 0.016
199 | CCATTAGTTG | 0.998 ± 0.02
200 | TAATACTCCT | 2.05 ± 0.073
